For data set [1] the following is noted: ref [45]; cited from earlier work. The source says:
An interesting feature of the S100A4/myosin-IIA complex is that myosin-IIA residues contributing to the coiled-coil interface also mediate S100A4 binding.

Data set [2] has as its target T1, S100A4 (Homo sapiens, UniProt P26447).
T1 construct: heteronuclear single quantum coherence spectrum (HSQC) of full-length Ca^2+-S100A4 at 600 MHz; made in house; host or cells: E. coli, M9 medium with 15N NH4Cl (BL21(DE3)* is named for the unlabelled protein)
The data set is described as follows: Sedimentation velocity of MIIA^1851-1960, S100A4 and S100A4/MIIA^1851-1960 mixtures. Format: physicochemical. The conditions noted are these: sedimentation velocity, protein alone. The procedure: (§1) Sedimentation equilibrium and velocity experiments were conducted at 22°C in a Beckman XL-I analytical ultracentrifuge using a Ti60 rotor and Raleigh interference optics. Wild-type S100A4 and MIIA^1851-1960 were dialyzed into 20 mM Tris pH 7.5, 150 mM KCl, 0.5 mM CaCl2, 1 mM TCEP and 0.02% NaN3 and clarified by ultracentrifugation at 80,000 rpm for 10 minutes at 4°C in TLA 120.2 rotor. Sedimentation equilibrium analysis of MIIA^1851-1960 and S100A4 was conducted in six channel centerpieces by sequentially equilibrating the protein at three concentrations for 24 hr at 12,000, 20,000 and 28,000 rpm and globally analyzing the data using HeteroAnalysis v1.1.44 (James L. Cole and Jeffrey W. Lary). The sedimentation velocity experiments were conducted at 53,000 rpm using double sector centerpieces and analyzed using DCDT + v2.4.0 [57, 58]. The best-fit parameters and their 95% joint confidence intervals are reported. The calculated masses of the wild-type S100A4 and MIIA^1851-1960 monomers are 11,597.3 and 12,397.5 Da, respectively. Values of ν-bar = 0.715 for S100A4/MIIA^851-1960 and 0.735 for S100A4, ρ = 1.0059, μ = 1.00586 cp were calculated using Sednterp v1.06 (Hayes, B., T. Laue & J. Philo, Sedimentation Interpretation Program. 2003, University of New Hampshire) from the amino acid and buffer compositions, respectively.

The nature of data set [3]: Sedimentation equilibrium of MIIA^1851-1960 and S100A4/MIIA^1851-1960 mixtures. In kind it is physicochemical, human. The conditions noted are these: 22°C, MIIA^1851-1960 alone, 20 mM Tris pH 7.5, 150 mM KCl, 0.5 mM CaCl2, 1 mM TCEP, 0.02% NaN3, predicted 24,795. The procedure: as §1
Data set [4] addresses T1, S100A4. The data set is described as above. Format: physicochemical. The conditions noted are these: 22°C. The procedure: as §1
Data set [5] can be described thus: Circular dichroism: secondary structure and thermal stability. In kind it is physicochemical. As to the method: MIIA^1851-1960 was dialyzed into 20 mM Tris pH 7.5, 150 mM KCl, 0.5 mM CaCl2, 0.02% NaN3 and clarified by ultracentrifugation at 80,000 rpm for 10 minutes at 4°C in TLA 120.2 rotor. MIIA^1851-1960 (40 μM monomer concentration) was transferred to a 1 mm path-length quartz cuvette and scanned in Jasco J-815 Spectrometer equipped with a PFD-425 temperature controller. Spectra from 190 to 260 nm were obtained at 22°C using a scan speed of 100 nm/minute, a 1 nm bandwidth, and a sensitivity of 100 mdeg. Thermal melt curves were obtained by monitoring ellipticity at 222 nm while the sample temperature was increased from 2 – 85°C in 2°C intervals at a rate of 60°C/h, using a 1 nm bandwidth. The data were fit to a sigmoidal dose–response with a variable slope using Graphpad Prism v5.
(Circular dichroism is the unequal absorption of left and right circularly polarised light.)

T1 sequence (P26447 2-101 limits assumed, one chain of several): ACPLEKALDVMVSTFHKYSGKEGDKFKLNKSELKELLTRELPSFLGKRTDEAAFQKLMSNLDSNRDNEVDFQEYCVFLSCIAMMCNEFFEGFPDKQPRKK

B1: myosin-IIA rod (residues 1102–1960): myosin-IIA rod, residues 1102–1960 (protein, UniProt P35579 1102-1960, looked up, fragment)
chain: ALKKIRELESQISELQEDLESERASRNKAEKQKRDLGEELEALKTELEDTLDSTAAQQELRSKREQEVNILKKTLEEEAKTHEAQIQEMRQKHSQAVEELAEQLEQTKRVKANLEKAKQTLENERGELANEVKVLLQGKGDSEHKRKKVEAQLQELQVKFNEGERVRTELADKVTKLQVELDNVTGLLSQSDSKSSKLTKDFSALESQLQDTQELLQEENRQKLSLSTKLKQVEDEKNSFREQLEEEEEAKHNLEKQIATLHAQVADMKKKMEDSVGCLETAEEVKRKLQKDLEGLSQRHEEKVAAYDKLEKTKTRLQQELDDLLVDLDHQRQSACNLEKKQKKFDQLLAEEKTISAKYAEERDRAEAEAREKETKALSLARALEEAMEQKAELERLNKQFRTEMEDLMSSKDDVGKSVHELEKSKRALEQQVEEMKTQLEELEDELQATEDAKLRLEVNLQAMKAQFERDLQGRDEQSEEKKKQLVRQVREMEAELEDERKQRSMAVAARKKLEMDLKDLEAHIDSANKNRDEAIKQLRKLQAQMKDCMRELDDTRASREEILAQAKENEKKLKSMEAEMIQLQEELAAAERAKRQAQQERDELADEIANSSGKGALALEEKRRLEARIAQLEEELEEEQGNTELINDRLKKANLQIDQINTDLNLERSHAQKNENARQQLERQNKELKVKLQEMEGTVKSKYKASITALEAKIAQLEEQLDNETKERQAACKQVRRTEKKLKDVLLQVDDERRNAEQYKDQADKASTRLKQLKRQLEEAEEEAQRANASRRKLQRELEDATETADAMNREVSSLKNKLRRGDLPFVVPRRMARKGAGDGSDEEVDGKADGAEAKPAE
Take B1: the Tm in data set [1] is 45 °C.

B2: MIIA^1851-1960: C-terminal fragment of the human myosin-IIA heavy chain that corresponds to residues 1851–1960 (protein)
chain: VDDERRNAEQYKDQADKASTRLKQLKRQLEEAEEEAQRANASRRKLQRELEDATETADAMNREVSSLKNKLRRGDLPFVVPRRMARKGAGDGSDEEVDGKADGAEAKPAE
On to B2, for which the “Peak 1 S20,w” value in the data set with S100A4 [2] (22°C, 53,000 rpm, 20 mM Tris pH 7.5, 150 mM KCl, 0.5 mM CaCl2, 1 mM TCEP, 0.02% NaN3) is 1.91 ± 0.01. In the data set with S100A4 [2] (22°C), the “Peak 1 MW” value amounted to 18.5 ± 0.2 kDa; the S value turned out to be 1.91 S; the “[Peak 1] (green), relative amount of plateau concentrations” value was determined as 2.09 ± 0.02. The “Experimental MW (weight-average molecular mass)” value in data set [3] was 25,651 ± 308 Da. The Oligomeric state entry with S100A4 [4] was “we did not detect any monomer”. Also, in data set [5] (CD, 222 nm, data not shown), the “Reversibility of thermal unfolding” value is “reversible”. In addition, the “Transition midpoint (Tm) for unfolding” value in data set [5] (CD, ellipticity at 222 nm, 40 μM monomer, 20 mM Tris pH 7.5, 150 mM KCl, 0.5 mM CaCl2, 0.02% NaN3, 2 – 85°C at 60°C/h, average of two independent experiments) was determined as 27 °C. Moreover, the “Secondary structure by CD” value in data set [5] (far-UV, 190 to 260 nm, 22°C, 40 μM MIIA^1851-1960 monomer, pH 7.5) is “primarily α-helical”.

Source of the values: publication PMC3924328, “Structure of the S100A4/myosin-IIA complex” (BMC Structural Biology, 2013).
